Tested on: MS2 coat protein
Test: apparent KD of MS2 coat protein; designed switch direction (-1 OFF switch, 1 ON switch): -1; higher = weaker reporter binding
In short: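 Designed RNA switches with common flanks were transcribed on Illumina chips by stalled E. coli RNA polymerase and titrated with SNAP-549-labelled MS2 coat protein, from 0.7 or 1.5 nM doubling to 3 µM, in Tris-HCl pH 7.5 buffer with KCl, MgCl2, BSA, DTT, tRNA and Tween-20. Steps lasted 0.8–1.5 h (lowest) to 10–20 min (highest). Titrations ran without input, with 200 uM small-molecule ligand, or with an oligonucleotide input. Normalised cluster fluorescence was curve-fitted, and apparent KD is the per-design median over clusters.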

[1] = input ligand: microRNA oligo, concentration not stated
[2] = Eterna round: R95, input ligand: FMN 200 uM
[3] = Eterna round: R95, input ligand: microRNA oligo, concentration not stated
[4] = Eterna round: R95, input ligand: none

Sequence	apparent KD of MS2 coat protein (input ligand: FMN 200 uM)	apparent KD of MS2 coat protein [1]	apparent KD of MS2 coat protein (input ligand: none)	apparent KD of MS2 coat protein [2]	apparent KD of MS2 coat protein [3]	apparent KD of MS2 coat protein [4]
GUGGUGGGUUUUCCGAGUGACAUGAGGAUCACCCAUGUGUUAGUUUGAGGUAUCAAGCGAAUGGCUCGUCUUAUGUG [JR_SV3TOV1_Sub046] (Eterna round: R96, puzzle: Sensor v3, turn-off variant 1)	982 nM	44.7 nM	623 nM			
UGUUGUUACGCAGGAUAUGGCCAACAGGCCCUAGGAUAUCCGAAAGGAGAAGGAGCGCCAACAGGCGAGAAGGGCGGGUUAACA [pwkr exNG2 2xF7 2xFMN.14] (Eterna round: R96, puzzle: Exclusion NG 2)	201 nM	55.7 nM	140 nM			
CCUGGGUAAGGAUAUUUGAUUCCCUCCGGUUAGGGAGGAUGGAAGAAGGUACAUGAGGAUCACCCAUGUGUGGA [Eternabot (L1) Solution 67] (Eterna round: R97, puzzle: Exclusion 4)	94.7 nM		97.8 nM			
CGGGCCGGCCUUCCGGCCGGCCCGACAUGAGGAUCACCCAUGUAGGAUAUCCCGGCUGCCGGCCGGGAGAAGGACAUGCGCCCG [-45.9, -45.9 kcal, 17% A] (Eterna round: R96, puzzle: Exclusion NG 3)	104 nM	65.3 nM	49.3 nM			
GCGGACAAGAUCGUGAGAUCAGAGACAUGAGGAUCACCCAUGUAGGAUAUCGAUUCGAAACGAAUCGAGAAGGGCAUAGUCCGC [JL denovo 6] (Eterna round: R96, puzzle: Exclusion NG 3)	20.5 nM	14.9 nM	19.8 nM			
UACUGGACAGGAUAUGUUCUUGAGCACUUGAGGAUCACCCAAGUCAUCAAGAACUCAGGCACAGAAGGGUUUAUGC [salish99_ex5_r4_007] (Eterna round: R97, puzzle: Exclusion 5)	19.1 nM		14 nM			
AAUCUACAUGUAGGAUAUGCGUGGCAAAGCUAUGCAGAAGGACAUGAGGAUCACCCAUGUUUUAGCGUCUGCGUACAGAUGCGA [Mat - Exclusion NG 1 - Mod of JL - D100] (Eterna round: R96, puzzle: Exclusion NG 1)	147 nM	18.4 nM	27.9 nM			
CUUGUCCGAGGAUAUAUUAUGUGAUACAUGAGGAUCACCCAUGUUAUAUGAUGGAUAUAAAUAGAAGGCGGACGAG [Mat - Exclusion 5 - JL mod - D68] (puzzle: Exclusion 5)				70.2 nM	46.7 nM	47.3 nM
GCAGCAUAGUUUACUAACUGUUACAUGAGGAUCACCCAUGUUUAGGAUAUGGUCUGGAUUACAGGCCAGAAGGGAACAAGCUGC [Eli exng3 - 032] (Eterna round: R96, puzzle: Exclusion NG 3)		10.3 nM				
CAGCCCUGAGGAUAUCCAUCCUCGUACAUGAGGAUCACCCAUGUCUCCCUCUGGGCUUUCGGAGAAGGCAGGUAUC [Megrez-6.1] (Eterna round: R97, puzzle: Exclusion 5)	743 nM		976 nM			
GGUAGUAUGAGUAGUCCUCAUUGAAGAGAGUGGUAAGAAACAUGAGGAUCACCCAUGUAAGAACAAGCUUUUGCUCA [JR_Sv3TOV2_Sub005] (puzzle: Sensor v3, turn-off variant 2)				191 nM	15.9 nM	266 nM
AAGUAUAGAGGAUAUAGUGAGUACUACAUGAGGAUCACCCAUGUUCUUCAAAACGUAUUUCUAGAAGGCUGUUAAA [EX-5 Malc#20] (puzzle: Exclusion 5)					43.5 nM	
GUAAACGCAGAGGAUAUAUCAGAUCAAAGCUGCAUAGAAGGCUGCACAUGAGGAUCACCCAUGUGGUCUUCAAG [Mat - Exclusion 6 - JL Mod - D7] (Eterna round: R97, puzzle: Exclusion 6)	230 nM		31.2 nM			
UUGAAGAUAGGAUAUACGAGGAGAGGAGAGAGAAGGUGAGGACAUGAGGAUCACCCAUGUAGAAGGAUCAGGAA [JR_Exclu2_Sub065] (puzzle: Exclusion 2)					75.4 nM	
UAUAACCGAGGAUAUACAUGAGGAUCACCCAUGUAAUGUAGUAUAGUGUAUGUAAGAUGUAGAAGGUGGGAUGU (Eterna round: R97, puzzle: Exclusion 3)	49.8 nM		59 nM			
GUCAGCUCGUCAGGAUAUACAUGAGGAUCACCCAUGUGAUCAAUAGCAGCUUCGGCUGCAAUAAUGUAGAAGGGACGAGCUGAC [ENG2/8-F] (Eterna round: R96, puzzle: Exclusion NG 2)	129 nM	578 nM	180 nM			
AAGAACCCGGUAGGAUAUAUUGUGGGCAAACAUGGAACAACAUGAGGAUCACCCAUGUAAUUUAGGUAGAAGGGCCAAAAGAGA [Default title] (Eterna round: R96, puzzle: Exclusion NG 2)	80.1 nM	51.6 nM	71.4 nM			

Sequence	apparent KD of MS2 coat protein (input ligand: FMN 200 uM)	apparent KD of MS2 coat protein [1]	apparent KD of MS2 coat protein (input ligand: none)	apparent KD of MS2 coat protein [2]	apparent KD of MS2 coat protein [3]	apparent KD of MS2 coat protein [4]
CUGAUGUUAGGAUAUCAGGUCACGCGCGAAGGCGCGCGGCAUGAGAAGGAACAUGAGGAUCACCCAUGUGACGA [Reisquso] (Eterna round: R96, puzzle: Exclusion 4)	305 nM	29.6 nM	43.3 nM			
CAGUACUGAGGAUAUACAUGAGGAUCACCCAUGUGCUUCAGCUAGGAUACUAGCAUUAGUAGAAGGCAGUACUG [Fiskers Ex 3 828 mod 13] (Eterna round: R96, puzzle: Exclusion 3)	81 nM	10.8 nM	13.9 nM			
AAGAAACAUGAGGAUCACCCAUGUGAGGAUAUGAGCACGACCGUGAGGUCGAUAAGAAUCAGAAGGCACAUUAA [JL-ex1-4.55] (Eterna round: R97, puzzle: Exclusion 1)	137 nM		41.8 nM			
CUCGUGUGAGGAUAUCAACGUCAAGCGUGAGCGAGACGAGAUGAGAAGGUACAUGAGGAUCACCCAUGUGCUCA [Eternabot (Original) Solution 25] (Eterna round: R97, puzzle: Exclusion 4)	83.1 nM		20 nM			
AGUAGGUCUACCUUGGUGGAUCUGCAUUUAUGCAGGUGUACAUGAGGAUCACCCAUGUCCUCAUUUGCUCGUCUUAU [JL turnoff v2 99.27] (puzzle: Sensor v3, turn-off variant 2)				400 nM	501 nM	349 nM
ACGAGGAUUACAGGAUAUGAAGCUAAAACGGCGUUAGAAGGGUAUACAGAGUUACAUGAGGAUCACCCAUGUUGUGAUUUCGAA [AK ExNG1-V2-4.1] (Eterna round: R96, puzzle: Exclusion NG 1)	158 nM	115 nM	134 nM			
AGUGCGUAUGUGAGGAUAUGCUGGUCCUUGGAUCAGCAGAAGGCACAUGAGGAUCACCCAUGUGGUGUCGUACA [salish99_Bmod_Ex4_006] (puzzle: Brourd's mod of Exclusion 4)					320 nM	
GCACUGCGAGGAUAUACAUGAGGAUCACCCAUGUGUCGGCAGCCACGGUAGUACAAGUGUAGAAGGCGCGUUAG [EX3 #47] (Eterna round: R97, puzzle: Exclusion 3)	140 nM		69.1 nM			
UACCUAAUGGGUGUUUCUCACAUGAGGAUCACCCAUGUCACUAGCUUUUUGCUCAUCUUAUCGAAACACCCUUAGUC [Birerage] (puzzle: Sensor v3, turn-off variant 1)				21.3 nM	10.2 nM	20.8 nM
CAUGAUUGGCGAGGAUAUUGACCUAGUUCGCGACGAGAAGGCGCCUGUCACAUGAGGAUCACCCAUGUGAAUCUGGUGAAAGAG [Ex NG1 #91] (Eterna round: R96, puzzle: Exclusion NG 1)	14.5 nM	11.4 nM	20.3 nM			
ACCUUACAUGAGGAUCACCCAUGUCAGGAUAUCUCGGACAGCUGAAAACCAGCCGUCCAGAGAAGGGACGAGGA [Tiaza] (puzzle: Exclusion 1)					12.8 nM	
UACGAGUCAGGAUAUUGGGCAAUAGCAUUACGGAACGAUCACAAGAAGGGACAUGAGGAUCACCCAUGUUAUAU [Candy Rainbow 3] (puzzle: Exclusion 4)					22.3 nM	
UUUUAACAUGAGGAUCACCCAUGUGAGGAUAUCGAAAUUUAUAUUAAUAUUAUUAUAACGAGAAGGCACAUUUU [JMF 39] (puzzle: Exclusion 1)					62.2 nM	
ACAUAUGACUAGGAUAUCACUAGCGAUAGCUAGUGAGAAGGAGUCACAUGAGGAUCACCCAUGUGCUCCAAUAA [Mod5 Ex6/6-A4 by Brourd] (Eterna round: R97, puzzle: Exclusion 6)	16.3 nM		15.1 nM			
GGGUAGUGAGGAUAUCGUUGUUAGGAGGAGAAGGUAGGAGGCGAGAAGGCACAUGAGGAUCACCCAUGUAUGAG [JR_Exclu4_Sub064] (puzzle: Exclusion 4)					26.9 nM	
GUAAACCGGUGAGGAUAUUUAUAAUAGAGCUUUAUGAUAUACAUGAGGAUCACCCAUGUUACUUUAAAGAAGGCAUCGGAAAUG [Mat - Exclusion NG 2 - Mod of JL - D95] (Eterna round: R96, puzzle: Exclusion NG 2)		15.5 nM				
AACGCGUGAGGAUAUUGAGGUCUAAAAUGGUAACAUGACCACGAGAAGGCACAUGAGGAUCACCCAUGUUCCCG [Eternabot (L2) Solution 49] (Eterna round: R97, puzzle: Exclusion 4)	85.1 nM		17.8 nM			

— the supplement of paper PMC9170038
